Experimental data from publication PMC5643311.

What was measured:
Test in all cases: co-immunoprecipitation, blot
Conditions in all cases: reference: wild type, EGF; sites S303
RelA/p65 [1] = target: RelA/p65 (UniProt Q04206)
RelA/p65 [2] = target: RelA/p65 (UniProt Q04206); remark: listed apart in the source
RelA/p65 [3] = target: RelA/p65 (UniProt Q04206); remark: listed apart in the source

Measured: binding against the reference

MIIP (migration and invasion inhibitory protein) (from UniProt Q5JXC2) S303A, EGF
weaker: all assays above
